From patent US12662530 (SPHINGOTEC, dated 2026)
Like-named read-outs stand apart in the source and are kept apart here. Where no end group is shown, it is not given here.

Key:
Assay in all cases: cell-based or functional assay
[1] = target: T1, human recombinant adrenomedullin receptor (CRLR+RAMP3) (human)
[2] = target: T2, Adrenomedullin 1-52-Gly (ADM-Gly) (human, not fully specified)
T2 peptide: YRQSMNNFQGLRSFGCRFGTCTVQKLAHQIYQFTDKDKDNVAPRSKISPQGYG

[3] = target: T1, human recombinant adrenomedullin …; remark: listed apart in the source

T1 sequence (Q16602 whole entry, chain 1 of 2): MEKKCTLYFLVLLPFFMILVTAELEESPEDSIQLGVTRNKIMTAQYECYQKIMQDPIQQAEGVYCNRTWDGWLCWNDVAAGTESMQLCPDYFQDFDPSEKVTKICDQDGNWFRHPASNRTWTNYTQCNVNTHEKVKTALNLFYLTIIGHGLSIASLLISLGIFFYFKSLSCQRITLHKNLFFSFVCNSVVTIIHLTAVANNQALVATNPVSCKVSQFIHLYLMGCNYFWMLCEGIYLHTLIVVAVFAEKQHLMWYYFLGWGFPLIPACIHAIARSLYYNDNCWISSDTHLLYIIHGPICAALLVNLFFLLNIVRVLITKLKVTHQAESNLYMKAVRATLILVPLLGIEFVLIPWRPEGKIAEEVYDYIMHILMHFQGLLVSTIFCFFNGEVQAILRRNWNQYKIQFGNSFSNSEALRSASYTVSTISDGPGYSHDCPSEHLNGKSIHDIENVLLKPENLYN
T1 sequence (O60896 whole entry, chain 2 of 2, further chain): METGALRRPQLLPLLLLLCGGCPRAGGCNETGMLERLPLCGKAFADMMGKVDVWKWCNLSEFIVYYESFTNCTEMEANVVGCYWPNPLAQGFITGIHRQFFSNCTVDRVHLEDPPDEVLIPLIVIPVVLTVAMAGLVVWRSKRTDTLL

B1: mature human Adrenomedullin (Human ADM 1-52) (peptide)
peptide: YRQSMNNFQGLRSFGCRFGTCTVQKLAHQIYQFTDKDKDNVAPRSKISPQGY-NH2
modifications: ends and bridges not checked
EC50 (read off the curve), cAMP stimulation [1]: ~1 nM

B2: HAM8101 (antibody, human IgG1, kappa, V domains shown)
VH: QVQLVQSGAEVKKPGSSVKVSCKASGYTFSRYWIEWVRQAPGQGLEWIGEILPGSGSTNYNQKFQGRVTITADTSTSTAYMELSSLRSEDTAVYYCTEGYEYDGFDYWGQGTTVTVSS
VL: DVVLTQSPLSLPVTLGQPASISCRSSQSIVYSNGNTYLEWYLQRPGQSPRLLIYRVSNRFSGVPDRFSGSGSGTDFTLKISRVEAEDVGVYYCFQGSHIPYTFGGGTKLEIKR
formation of bio-ADM from ADM-Gly by native human plasma PAM after 90 minutes, with 300 µg/mL HAM8101 against without [2]: 4 fold

B3: Mouse ADM 1-50 (peptide)
peptide: YRQSMNQGSRSNGCRFGTCTFQKLAHQIYQLTDKDKDGMAPRNKISPQGY-NH2
modifications: ends and bridges not checked
EC50 (read off the curve), cAMP stimulation [3]: ~0.08 nM
